# Test results published in patent US7531516B2, “Peptidic compounds selectively binding to P-selectin” (Astellas Pharma Europe B.V., priority 2001, dated 2009).
# Positions of bridges follow the written chain, without caps; N, C: chain ends. Residues, ends and D or L forms follow the SMILES beside them. No end group written: not given here. *: point of attachment. Biotin = O=C1N[C@H]2[C@H](CS[C@H]2CCCCC(=O)*)N1; Ahx = NCCCCCC(=O)O
# B1: Biotin-TM2 (peptide)
# peptide: {Biotin-Ahx}-CGWVDVIASGDTATLAC
# modifications: cysteine pairing not given here
# notes: Linear compounds were tested in the presence of DTT
# B2: Biotin-TM1 (peptide)
# peptide: {Biotin-Ahx}-CPEFVDVEGDPGALLAC
# modifications: cysteine pairing not given here
# notes: as for B1
# B3: Biotin-A17 (peptide)
# peptide: {Biotin-Ahx}-CDVEWVDVSC
# modifications: cysteine pairing not given here
# notes: Only TM11 is said to have been prepared in a cyclized form as well
# B4: Biotin-TM16 (peptide)
# peptide: {Biotin-Ahx}-CPDWVDVFKLVEGVMLC
# modifications: cysteine pairing not given here
# notes: as for B1
# Key:
# [1] = target: T1, human p-selectin (Homo sapiens, UniProt P16109); experiment: Competition ELISA: displacement of TM11-strepPO complex from coated chimeric human P-selectin; format: binding; details: competition with 2.5 nM TM11-strepPO, 1 hour at 4° C.; linear compounds in the presence of DTT; read-out: Affinity (affinity constant)
# T1 sequence (P16109 42-830): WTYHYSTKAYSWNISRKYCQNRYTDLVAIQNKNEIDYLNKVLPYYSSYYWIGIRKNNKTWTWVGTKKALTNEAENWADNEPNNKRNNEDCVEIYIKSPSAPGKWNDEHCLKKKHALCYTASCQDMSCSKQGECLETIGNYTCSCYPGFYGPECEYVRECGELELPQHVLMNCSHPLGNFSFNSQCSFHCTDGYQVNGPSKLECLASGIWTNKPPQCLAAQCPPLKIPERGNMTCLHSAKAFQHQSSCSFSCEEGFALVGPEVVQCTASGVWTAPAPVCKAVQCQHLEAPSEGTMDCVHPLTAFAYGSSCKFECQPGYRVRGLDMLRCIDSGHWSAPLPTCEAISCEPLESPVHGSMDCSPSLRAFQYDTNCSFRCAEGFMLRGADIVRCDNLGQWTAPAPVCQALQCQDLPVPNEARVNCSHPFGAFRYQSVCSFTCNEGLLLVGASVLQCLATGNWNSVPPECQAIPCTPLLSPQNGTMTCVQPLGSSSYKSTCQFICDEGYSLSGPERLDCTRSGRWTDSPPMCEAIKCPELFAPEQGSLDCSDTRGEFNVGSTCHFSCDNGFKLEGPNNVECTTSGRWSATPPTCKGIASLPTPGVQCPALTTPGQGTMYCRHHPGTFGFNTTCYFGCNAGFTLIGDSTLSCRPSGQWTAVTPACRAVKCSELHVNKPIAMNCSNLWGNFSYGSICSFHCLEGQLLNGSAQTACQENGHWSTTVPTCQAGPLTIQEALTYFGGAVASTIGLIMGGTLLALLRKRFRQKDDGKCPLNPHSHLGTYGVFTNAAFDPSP
# Description: The affinity of the compounds to P-selectin was investigated by using an adapted ELISA method. Streptavidin-horseradishperoxidase (strepPO) was incubated with TM11-biotin in a 1 to 4 molar ratio for 2 hours at RT, hereby forming a tetrameric peptide strepPO-complex. For competition studies, microtiter wells were coated with chimeric human p-selectin as described for the isolation of p-selectin binding phage. Wells were then incubated with 2.5 nM TM11-strepPO complex in assay buffer for 1 hour at 4° C., in the presence of titered amounts of peptides to compete for binding to human p-selectin. Linear compounds were tested in the presence of DTT to prevent aggregate formation. After washing 6 times with assay buffer, the wells were incubated with 100 μl TMB/H2O2 for 15 min at RT. The reaction was stopped with 1 M H2SO4 and the absorbance read at 450 nm. From the results, the affinity constants were calculated: […]
# [2] = test system: human P-selectin-IgG; experiment: Binding of [3H]-cholesterol labeled sulfatide liposomes to human P-selectin-IgG; details: liposomes carrying 22% of sulfatides, 2 hours at 4° C.
# Description: Liposomes were prepared by sonication from egg yolk phosphatidylcholine, cholesterol, and sulfatides, all dissolved in chloroform/methanol (1:1, v/v), at weight ratios of 4:0.8:1.33. A tracer amount of [^3H]-cholesterol (1.3×10^8 dpm) was added, and the mixture was dried under a stream of nitrogen. The resulting lipid layer was vortexed in PBS and subsequently sonicated, resulting in liposomes with mean particle diameters of 59-62 nm.
# Fc-specific goat anti-human IgG in coating buffer (50 mM NaHCO3, pH 9.6) was incubated in a high binding 96 well plate. The next day, wells were washed with assay buffer (20 mM HEPES, 150 mM NaCl, 1 mM CaCl2, pH 7.4) and incubated with blocking buffer (3% BSA in assay buffer). After washing, wells were incubated with human P-selectin-IgG, washed, and subsequently incubated with the [^3H]-cholesterol labeled liposomes in the presence or absence of the compounds below and antibodies for 2 hours at 4° C. After removal of unbound liposomes, bound liposomes were collected and counted using a scintillation counter.
# [3] = test system: Human platelets; experiment: Inhibition of platelet aggregation; format: cell-based; details: human platelets activated by ADV
# Description: Human platelets were activated by ADV, and the extent of platelet aggregation was measured in the presence or absence of EWVDV (SEQ ID No: 19)-containing peptides.
# [4] = target: T2, chimeric human p-selectin (human, UniProt P16109 42-321); experiment: competition ELISA; coated chimeric human P-selectin, competitor 2.5 nM TM11-strepPO complex; column head 'Affinity'
# T2 construct: also called human P-selectin-IgG
# T2 sequence (looked up): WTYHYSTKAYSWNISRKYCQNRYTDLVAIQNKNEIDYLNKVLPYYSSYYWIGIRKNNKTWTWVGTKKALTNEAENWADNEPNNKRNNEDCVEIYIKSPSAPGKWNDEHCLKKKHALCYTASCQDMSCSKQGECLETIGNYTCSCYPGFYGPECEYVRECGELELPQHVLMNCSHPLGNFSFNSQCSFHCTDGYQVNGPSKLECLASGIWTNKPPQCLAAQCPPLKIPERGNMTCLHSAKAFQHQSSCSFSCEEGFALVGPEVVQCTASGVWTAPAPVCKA
# Description: (§1) Linear compounds were tested in the presence of DTT to prevent aggregate formation. After washing 6 times with assay buffer, the wells were incubated with 100 μl TMB/H_2O_2 for 15 min at RT. The reaction was stopped with 1 M H_2SO_4 and the absorbance read at 450 nm. From the results, the affinity constants were calculated: […]
# [5] = target: T2, chimeric human p-selectin; experiment: affinity to human P-selectin, prepared and tested as in example 1 (competition ELISA against TM11-strepPO complex); column head 'Affinity [µM]'
# Description: as §1
molecule,measurement,setting,value
CC(C)C[C@H](NC(=O)[C@H](CO)NC(=O)[C@H](CO)NC(=O)[C@@H](NC(=O)[C@H](CC(=O)O)NC(=O)[C@@H](NC(=O)[C@H](Cc1c[nH]c2ccccc12)NC(=O)[C@H](CCC(=O)O)NC(=O)[C@@H](NC(=O)[C@H](CC(=O)O)NC(=O)[C@H](CS)NC(=O)CCCCCNC(=O)CCCC[C@@H]1SC[C@@H]2NC(=O)N[C@@H]21)C(C)C)C(C)C)C(C)C)C(=O)N[C@@H](CCC(=O)O)C(=O)N[C@@H](Cc1c[nH]c2ccccc12)C(=O)N[C@@H](CC(=O)O)C(=O)N[C@@H](CC(C)C)C(=O)N1CCC[C@H]1C(=O)N[C@@H](CS)C(=O)O [Biotin-TM11] ({Biotin-Ahx}-CDVEWVDVSSLEWDLPC-OH),IC50,[1],2 µM
CC(C)C[C@@H]1NC(=O)[C@H](CO)NC(=O)[C@H](CO)NC(=O)[C@H](C(C)C)NC(=O)[C@H](CC(=O)O)NC(=O)[C@H](C(C)C)NC(=O)[C@H](Cc2c[nH]c3ccccc23)NC(=O)[C@H](CCC(=O)O)NC(=O)[C@H](C(C)C)NC(=O)[C@H](CC(=O)O)NC(=O)[C@@H](NC(=O)CCCCCNC(=O)CCCC[C@@H]2SC[C@@H]3NC(=O)N[C@@H]32)CSSC[C@@H](C(=O)O)NC(=O)[C@@H]2CCCN2C(=O)[C@H](CC(C)C)NC(=O)[C@H](CC(=O)O)NC(=O)[C@H](Cc2c[nH]c3ccccc23)NC(=O)[C@H](CCC(=O)O)NC1=O [Biotin-TM11(cyclic)] ({Biotin-Ahx}-CDVEWVDVSSLEWDLPC-OH; disulfide 1-17),IC50,[1],2 µM
D V E W V D V S (DVEWVDVS) [A19],inhibition of the binding of sulfatides to P-selectin,[2],significantly inhibited
same,aggregation reduced (second phase of platelet aggregation),[3],about 45%
CC(C)[C@H](NC(=O)[C@H](CC(=O)O)NC(=O)[C@@H](NC(=O)[C@H](Cc1c[nH]c2ccccc12)NC(=O)[C@H](CCC(=O)O)NC(=O)[C@@H](NC(=O)[C@H](CC(=O)O)NC(=O)CCCCCNC(=O)CCCC[C@@H]1SC[C@@H]2NC(=O)N[C@@H]21)C(C)C)C(C)C)C(=O)N[C@@H](CO)C(=O)O [Biotin-A19] ({Biotin-Ahx}-DVEWVDVS-OH),IC50,[1],12 µM
EWVDV [core motif peptide],inhibition of the binding of sulfatides to P-selectin,[2],did not
C D V E W V D V S C (CDVEWVDVSC) [A17],inhibition of the binding of sulfatides to P-selectin,[2],significantly inhibited
same,aggregation reduced (second phase of platelet aggregation),[3],~25%
D V E W V D V A (DVEWVDVA) [A27],inhibition of the binding of sulfatides to P-selectin,[2],significantly inhibited
"DVEAVDVS [D V E A V D V S, reference compound]",inhibition of the binding of sulfatides to P-selectin,[2],did not
{Biotin-Ahx}-VGLDPRDWVDVSDYA [Biotin-SH31],IC50,[4],19 µM
{Biotin-Ahx}-EWVKVA (Comparative compound),IC50,[5],13000 µM
{Biotin-Ahx}-CDVEWVDVSSLEWDLPC (disulfide 1-17) [Biotin-TM11(cyclic)],IC50,[4],2 µM
{Biotin-Ahx}-DVEAVDVS (Comparative compound),IC50,[5],400000 µM
{Biotin-Ahx}-DVEWVAVS (Comparative compound),IC50,[5],21000 µM
{Biotin-Ahx}-DVEWVDAS (Comparative compound),IC50,[5],13000 µM
{Biotin-Ahx}-DVEWADVS (Comparative compound),IC50,[5],1400 µM
B1,IC50,[4],49 µM
B2,IC50,[4],82 µM
B3,IC50,[4],0.1 µM
B4,IC50,[4],12 µM
